Results taken from patent publication US8293494 (UNIVERSITATSKLINIKUM FREIBURG, dated 2012).

T1: GFP-JHDM2A (UniProt Q9Y4C1 1-1321)
T1 construct: not shown: GFP fusion partner
T1 sequence (looked up): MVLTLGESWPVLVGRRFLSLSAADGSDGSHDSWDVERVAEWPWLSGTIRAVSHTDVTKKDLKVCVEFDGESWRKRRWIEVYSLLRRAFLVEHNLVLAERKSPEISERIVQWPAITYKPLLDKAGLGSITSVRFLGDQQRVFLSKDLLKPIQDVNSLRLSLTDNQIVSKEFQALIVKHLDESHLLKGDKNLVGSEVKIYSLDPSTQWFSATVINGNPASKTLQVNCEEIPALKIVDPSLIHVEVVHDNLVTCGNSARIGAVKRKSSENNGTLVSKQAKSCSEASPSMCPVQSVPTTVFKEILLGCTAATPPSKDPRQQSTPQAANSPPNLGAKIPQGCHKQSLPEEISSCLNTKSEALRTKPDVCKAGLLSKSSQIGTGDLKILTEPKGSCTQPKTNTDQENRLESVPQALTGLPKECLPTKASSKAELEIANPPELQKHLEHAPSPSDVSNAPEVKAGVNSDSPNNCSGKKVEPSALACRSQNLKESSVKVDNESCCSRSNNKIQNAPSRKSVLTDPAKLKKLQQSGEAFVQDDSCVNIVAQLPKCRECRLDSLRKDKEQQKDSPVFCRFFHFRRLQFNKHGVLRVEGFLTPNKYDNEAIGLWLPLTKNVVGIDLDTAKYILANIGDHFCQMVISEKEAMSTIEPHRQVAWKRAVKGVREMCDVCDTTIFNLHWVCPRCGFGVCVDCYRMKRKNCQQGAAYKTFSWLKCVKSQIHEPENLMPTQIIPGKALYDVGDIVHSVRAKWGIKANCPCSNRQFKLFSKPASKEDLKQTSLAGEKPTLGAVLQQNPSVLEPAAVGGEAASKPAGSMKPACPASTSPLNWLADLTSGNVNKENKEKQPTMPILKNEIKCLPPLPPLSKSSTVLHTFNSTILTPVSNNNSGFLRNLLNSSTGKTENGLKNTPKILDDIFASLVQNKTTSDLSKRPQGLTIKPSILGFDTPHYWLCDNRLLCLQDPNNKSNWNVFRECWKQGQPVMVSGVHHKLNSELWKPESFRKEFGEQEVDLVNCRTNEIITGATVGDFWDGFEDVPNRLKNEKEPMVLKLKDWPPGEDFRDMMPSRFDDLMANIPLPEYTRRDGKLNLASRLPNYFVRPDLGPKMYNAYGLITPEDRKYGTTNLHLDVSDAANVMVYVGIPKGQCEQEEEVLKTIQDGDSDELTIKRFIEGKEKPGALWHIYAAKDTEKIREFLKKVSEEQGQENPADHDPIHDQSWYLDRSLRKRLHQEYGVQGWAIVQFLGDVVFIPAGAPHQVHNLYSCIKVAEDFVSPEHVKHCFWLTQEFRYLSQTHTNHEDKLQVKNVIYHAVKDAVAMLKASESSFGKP


What was measured:
TAP-LSD1 = TAP-LSD1 (UniProt O60341 1-852); assay: TAP-LSD1 complexes immobilised on IgG sepharose, Western blot
Text: Protein complexes were immobilised on IgG, sepharose, released from IgG sepharose by TEV protease cleavage of the TAP tag, followed by immunoprecipitation of Flag-tagged AR with α-Flag antibody. […] Ten percent of the extract used for immunoprecipitation was loaded as input.
LSD1 associated complexes were released from IgG sepharose by TEV protease cleavage of the TAP-tag followed by immunoprecipitation of Flag-tagged AR with α-Flag antibody. […] We applied the TAP-based co-purification strategy because the moderate expression levels of the endogenous proteins would only have allowed a limited number of purification steps.

GFP-JHDM2A = target: T1, GFP-JHDM2A; assay: co-immunoprecipitation with α-Flag from transfected 293 cells, Western blot with α-GFP
Text: Extracts were immunoprecipitated with α-Flag antibody. Twenty percent of the extract used for immunoprecipitation was loaded as input. Western blots were decorated with α-GFP (Santa Cruz; 1:500) or α-Flag antibody (1:2500).

[1] = target: LSD1 (endogenous, LNCaP cells) (human, UniProt O60341 1-852); assay: Re-ChIP in LNCaP cells
Procedure: LNCaP cells were incubated with or without the AR agonist R1881 (a, b), and transfected with stealth RNAi (b). ChIP or Re-ChIP was performed with the indicated antibodies. The precipitated chromatin was amplified by PCR using primers flanking the promoter region (ARE I+II) and the enhancer region (ARE III) of the PSA gene, the promoter region (ARE) of the KLK2 gene, or the promoters of the unrelated GAPDH and U6 genes. […] Western blots were decorated with the indicated antibodies against α-mono-, α-di-, or α-trimethyl H3K9.
ChIP experiments were performed as described[3]. LNCaP cells were treated for 45 min (FIG. 2a) or 210 min in the presence or absence of 10^-8 M R1881 as indicated. LNCaP cells were transfected three days before harvesting for ChIP with or without stealth RNAi (Invitrogen) following the manufacturer's instructions. […] For PCR, 1-5 µl out of 50 d DNA extract was used. For Re-ChIP assays, immunoprecipitations were sequentially washed with TSE I, TSE II, buffer III, and TE[20]. Complexes were eluted by incubation with 10 mM DTT at 37° C. for 30 minutes, diluted 50 times with dilution buffer[20] followed by a second immunoprecipitation with the indicated antibodies.

Binder | binding result (TAP-LSD1) | further results
Flag-AR (receptor, Plasmid described previously; Assays in the presence of R1881; also called Flag-tagged AR; not shown: Flag tag) MEVQLGLGRVYPRPPSKTYRGAFQNLFQSVREVIQNPGPRHPEAASAAPPGASLLLLQQQQQQQQQQQQQQQQQQQQQQQETSPRQQQQQQGEDGSPQAHRRGPTGYLVLDEEQQPSQPQSALECHPERGCVPEPGAAVAASKGLPQQLPAPPDEDDSAAPSTLSLLGPTFPGLSSCSADLKDILSEASTMQLLQQQQQEAVSEGSSSGRAREASGAPTSSKDNYLGGTSTISDNAKELCKAVSVSMGLGVEALEHLSPGEQLRGDCMYAPLLGVPPAVRPTPCAPLAECKGSLLDDSAGKSTEDTAEYSPFKGGYTKGLEGESLGCSGSAAAGSSGTLELPSTLSLYKSGALDEAAAYQSRDYYNFPLALAGPPPPPPPPHPHARIKLENPLDYGSAWAAAAAQCRYGDLASLHGAGAAGPGSGSPSAAASSSWHTLFTAEEGQLYGPCGGGGGGGGGGGGGGGGGGGGGGGEAGAVAPYGYTRPPQGLAGQESDFTAPDVWYPGGMVSRVPYPSPTCVKSEMGPWMDSYSGPYGDMRLETARDHVLPIDYYFPPQKTCLICGDEASGCHYGALTCGSCKVFFKRAAEGKQKYLCASRNDCTIDKFRRKNCPSCRLRKCYEAGMTLGARKLKKLGNLKLQEEGEASSTTSPTEETTQKLTVSHIEGYECQPIFLNVLEAIEPGVVCAGHDNNQPDSFAALLSSLNELGERQLVHVVKWAKALPGFRNLHVDDQMAVIQYSWMGLMVFAMGWRSFTNVNSRMLYFAPDLVFNEYRMHKSRMYSQCVRMRHLSQEFGWLQITPQEFLCMKALLLFSIIPVDGLKNQKFFDELRMNYIKELDRIIACKRKNPTSCSRRFYQLTKLLDSVQPIARELHQFTFDLLIKSHMVSVDFPEMMAEIISVQVPKILSGKVKPIYFHTQ | binds | 
V5-JMJD2C (enzyme, also called CMX-DEST51-JMJD2C; not shown: V5 tag) MEVAEVESPLNPSCKIMTFRPSMEEFREFNKYLAYMESKGAHRAGLAKVIPPKEWKPRQCYDDIDNLLIPAPIQQMVTGQSGLFTQYNIQKKAMTVKEFRQLANSGKYCTPRYLDYEDLERKYWKNLTFVAPIYGADINGSIYDEGVDEWNIARLNTVLDVVEEECGISIEGVNTPYLYFGMWKTTFAWHTEDMDLYSINYLHFGEPKSWYAIPPEHGKRLERLAQGFFPSSSQGCDAFLRHKMTLISPSVLKKYGIPFDKITQEAGEFMITFPYGYHAGFNHGFNCAESTNFATVRWIDYGKVAKLCTCRKDMVKISMDIFVRKFQPDRYQLWKQGKDIYTIDHTKPTPASTPEVKAWLQRRRKVRKASRSFQCARSTSKRPKADEEEEVSDEVDGAEVPNPDSVTDDLKVSEKSEAAVKLRNTEASSEEESSASRMQVEQNLSDHIKLSGNSCLSTSVTEDIKTEDDKAYAYRSVPSISSEADDSIPLSSGYEKPEKSDPSELSWPKSPESCSSVAESNGVLTEGEESDVESHGNGLEPGEIPAVPSGERNSFKVPSIAEGENKTSKSWRHPLSRPPARSPMTLVKQQAPSDEELPEVLSIEEEVEETESWAKPLIHLWQTKSPNFAAEQEYNATVARMKPHCAICTLLMPYHKPDSSNEENDARWETKLDEVVTSEGKTKPLIPEMCFIYSEENIEYSPPNAFLEEDGTSLLISCAKCCVRVHASCYGIPSHEICDGWLCARCKRNAWTAECCLCNLRGGALKQTKNNKWAHVMCAVAVPEVRFTNVPERTQIDVGRIPLQRLKLKCIFCRHRVKRVSGACIQCSYGRCPASFHVTCAHAAGVLMEPDDWPYVVNITCFRHKVNPNVKSKACEKVISVGQTVITKHRNTRYYSCRVMAVTSQTFYEVMFDDGSFSRDTFPEDIVSRDCLKLGPPAEGEVVQVKWPDGKLYGAKYFGSNIAHMYQVEFEDGSQIAMKREDIYTLDEELPKRVKARFSTASDMRFEDTFYGADIIQGERKRQRVLSSRFKNEYVADPVYRTFLKSSFQKKCQKRQ | binds | 
Flag-JMJD2C (enzyme, human, UniProt Q9H3R0 1-1056, looked up, also called CMX-Flag-JMJD2C; not shown: Flag tag) MEVAEVESPLNPSCKIMTFRPSMEEFREFNKYLAYMESKGAHRAGLAKVIPPKEWKPRQCYDDIDNLLIPAPIQQMVTGQSGLFTQYNIQKKAMTVKEFRQLANSGKYCTPRYLDYEDLERKYWKNLTFVAPIYGADINGSIYDEGVDEWNIARLNTVLDVVEEECGISIEGVNTPYLYFGMWKTTFAWHTEDMDLYSINYLHFGEPKSWYAIPPEHGKRLERLAQGFFPSSSQGCDAFLRHKMTLISPSVLKKYGIPFDKITQEAGEFMITFPYGYHAGFNHGFNCAESTNFATVRWIDYGKVAKLCTCRKDMVKISMDIFVRKFQPDRYQLWKQGKDIYTIDHTKPTPASTPEVKAWLQRRRKVRKASRSFQCARSTSKRPKADEEEEVSDEVDGAEVPNPDSVTDDLKVSEKSEAAVKLRNTEASSEEESSASRMQVEQNLSDHIKLSGNSCLSTSVTEDIKTEDDKAYAYRSVPSISSEADDSIPLSSGYEKPEKSDPSELSWPKSPESCSSVAESNGVLTEGEESDVESHGNGLEPGEIPAVPSGERNSFKVPSIAEGENKTSKSWRHPLSRPPARSPMTLVKQQAPSDEELPEVLSIEEEVEETESWAKPLIHLWQTKSPNFAAEQEYNATVARMKPHCAICTLLMPYHKPDSSNEENDARWETKLDEVVTSEGKTKPLIPEMCFIYSEENIEYSPPNAFLEEDGTSLLISCAKCCVRVHASCYGIPSHEICDGWLCARCKRNAWTAECCLCNLRGGALKQTKNNKWAHVMCAVAVPEVRFTNVPERTQIDVGRIPLQRLKLKCIFCRHRVKRVSGACIQCSYGRCPASFHVTCAHAAGVLMEPDDWPYVVNITCFRHKVNPNVKSKACEKVISVGQTVITKHRNTRYYSCRVMAVTSQTFYEVMFDDGSFSRDTFPEDIVSRDCLKLGPPAEGEVVQVKWPDGKLYGAKYFGSNIAHMYQVEFEDGSQIAMKREDIYTLDEELPKRVKARFSTASDMRFEDTFYGADIIQGERKRQRVLSSRFKNEYVADPVYRTFLKSSFQKKCQKRQ |  | binding result (GFP-JHDM2A): no binding
JMJD2C (endogenous, LNCaP cells) (enzyme, Endogenous protein, on chromatin (ChIP / Re-ChIP)) MEVAEVESPLNPSCKIMTFRPSMEEFREFNKYLAYMESKGAHRAGLAKVIPPKEWKPRQCYDDIDNLLIPAPIQQMVTGQSGLFTQYNIQKKAMTVKEFRQLANSGKYCTPRYLDYEDLERKYWKNLTFVAPIYGADINGSIYDEGVDEWNIARLNTVLDVVEEECGISIEGVNTPYLYFGMWKTTFAWHTEDMDLYSINYLHFGEPKSWYAIPPEHGKRLERLAQGFFPSSSQGCDAFLRHKMTLISPSVLKKYGIPFDKITQEAGEFMITFPYGYHAGFNHGFNCAESTNFATVRWIDYGKVAKLCTCRKDMVKISMDIFVRKFQPDRYQLWKQGKDIYTIDHTKPTPASTPEVKAWLQRRRKVRKASRSFQCARSTSKRPKADEEEEVSDEVDGAEVPNPDSVTDDLKVSEKSEAAVKLRNTEASSEEESSASRMQVEQNLSDHIKLSGNSCLSTSVTEDIKTEDDKAYAYRSVPSISSEADDSIPLSSGYEKPEKSDPSELSWPKSPESCSSVAESNGVLTEGEESDVESHGNGLEPGEIPAVPSGERNSFKVPSIAEGENKTSKSWRHPLSRPPARSPMTLVKQQAPSDEELPEVLSIEEEVEETESWAKPLIHLWQTKSPNFAAEQEYNATVARMKPHCAICTLLMPYHKPDSSNEENDARWETKLDEVVTSEGKTKPLIPEMCFIYSEENIEYSPPNAFLEEDGTSLLISCAKCCVRVHASCYGIPSHEICDGWLCARCKRNAWTAECCLCNLRGGALKQTKNNKWAHVMCAVAVPEVRFTNVPERTQIDVGRIPLQRLKLKCIFCRHRVKRVSGACIQCSYGRCPASFHVTCAHAAGVLMEPDDWPYVVNITCFRHKVNPNVKSKACEKVISVGQTVITKHRNTRYYSCRVMAVTSQTFYEVMFDDGSFSRDTFPEDIVSRDCLKLGPPAEGEVVQVKWPDGKLYGAKYFGSNIAHMYQVEFEDGSQIAMKREDIYTLDEELPKRVKARFSTASDMRFEDTFYGADIIQGERKRQRVLSSRFKNEYVADPVYRTFLKSSFQKKCQKRQ |  | binding result [1]: binds
